Our source for the stoichiometry N values is publication PMC4038622.

For assay [1], the target named is VP4 spike protein, unprocessed precursor, porcine rotavirus strain OSU (clone OSU-C5111) (porcine rotavirus strain OSU) (UniProt P11114). Nature of the assay: cryo-EM structure; single-particle three-dimensional reconstruction with icosahedral symmetry of vitrified purified virions (NTR-TLP and TR-TLP of strains SA11 and OSU), 200 kV; virions assembled in infected MA104 cells and purified in CsCl gradients; 11.9-15.4 Å (FSC 0.3).

Assay [2] addresses VP4 spike protein, unprocessed precursor, rotavirus strain SA11 (clone SA11-C4111) (simian rotavirus strain SA11). Described as above.

“VP4 spike protein, unprocessed precursor, porcine rotavirus strain OSU (clone OSU-C5111) (from UniProt P11114 1-776) (natural protein)” gave a stoichiometry N in assay [1] of 3.
In turn, “VP4 spike protein, unprocessed precursor, rotavirus strain SA11 (clone SA11-C4111) (natural protein)” had a stoichiometry N in assay [2] of 3.

In general, stoichiometry N refers to a count of units in the complex or per binding partner.
